{"source": "paper PMC5830076", "biological_target": "ARΔ423-448 (Flag-AR with residues 423 to 448 removed) (human) (UniProt P10275)", "assay": "proximity ligation", "data": [{"substance": "Myc-RAP74-CTD (from UniProt P35269 450-517) (domain or fragment)", "values": [{"measurement": "reduction of the interaction against WT AR (PLA)", "value": 40, "unit": "%"}]}]}
